The values that follow are results of earlier work, collected in US20110015587A1, “Irrigation Device and Method Using Same” (priority 2009, published 2011).

The series deals with fibroblasts. The note with it: in six hours; through motility of fibroblasts.

B1: Lactoferrin (protein, UniProt P02788 20-710, looked up)
Lactotransferrin: GRRRSVQWCAVSQPEATKCFQWQRNMRKVRGPPVSCIKRDSPIQCIQAIAENRADAVTLDGGFIYEAGLAPYKLRPVAAEVYGTERQPRTHYYAVAVVKKGGSFQLNELQGLKSCHTGLRRTAGWNVPIGTLRPFLNWTGPPEPIEAAVARFFSASCVPGADKGQFPNLCRLCAGTGENKCAFSSQEPYFSYSGAFKCLRDGAGDVAFIRESTVFEDLSDEAERDEYELLCPDNTRKPVDKFKDCHLARVPSHAVVARSVNGKEDAIWNLLRQAQEKFGKDKSPKFQLFGSPSGQKDLLFKDSAIGFSRVPPRIDSGLYLGSGYFTAIQNLRKSEEEVAARRARVVWCAVGEQELRKCNQWSGLSEGSVTCSSASTTEDCIALVLKGEADAMSLDGGYVYTAGKCGLVPVLAENYKSQQSSDPDPNCVDRPVEGYLAVAVVRRSDTSLTWNSVKGKKSCHTAVDRTAGWNIPMGLLFNQTGSCKFDEYFSQSCAPGSDPRSNLCALCIGDEQGENKCVPNSNERYYGYTGAFRCLAENAGDVAFVKDVTVLQNTDGNNNEAWAKDLKLADFALLCLDGKRKPVTEARSCHLAMAPNHAVVSRMDKVERLKQVLLHQQAKFGRNGSDCPDKFCLFQSETKNLLFNDNTECLARLHGKTTYEKYLGPQYVAGITNLKKCSTSPLLEACEFLRK
For B1, the “reduction of collagen gel surface area” value is recorded as 50%.
